Source: the RNAGym collection of RNA variant scans (doi:10.7554/elife.80360)

B1: HDV Ribozyme (parent)
chain: GGCCGGCAUGGUCCCAGCCUCCUCGCUGGCGCCGGCUGGGCAACAUUCCGAGGGGACCGUCCCCUCGGUAAUGGCGAAUGGGACCCA

Variants of: B1
Assay: self-cleavage, relative activity (ratio to wild type); higher = more cleavage; co-transcriptional

Row | Variant | self-cleavage
1 | GGCCGGCAUGGUCCCAGCCUCCUCGCUGGCGCCGGCUGGGCAACAUUCCGAGGGAACUGUCCCCUCGGUAAUGGCGAAUGGGACCCA [G55A C58U] | 1.07
2 | GGCCGGCAUGGUCCCAGCCUCCCCGCAGGCGCCGGCUGGGCAACAUUCCGAGGGGACCGUCCCCUCGGUAAUGGCGAAUGGGACCCA [U23C U27A] | 0.898
3 | GGCCGGCAUGGUCCCAGCCUCCUCGCUGUCGCCGGCUGGGCAAGAUUCCGAGGGGACCGUCCCCUCGGUAAUGGCGAAUGGGACCCA [G29U C44G] | 0.0326
4 | GGCCGGCAUGGUACCAGCCUCCUCGCUGGCGCCGACUGGGCAACAUUCCGAGGGGACCGUCCCCUCGGUAAUGGCGAAUGGGACCCA [C13A G35A] | 0.0339
5 | GGCCGGCAUGGUCCCAGCCUCCUCGCUGGCGCCGGCUGGGCAACAUUCCGAGGGGACCGUCCCCUCGGUAAUGGCGAAUGGAAACCA [G82A C84A] | 0.399
6 | GGCCGGCAUGGUCCCAGCCUGCUCGCUGGCGCCGGCUGGGCAACAUUCCGAGGGGACCGUCCCCUCGGUAAUGGCGAGUGGGACCCA [C21G A78G] | 0.135
7 | GGCCGGCAUGGUCCCAGCCUCCUCGCUGGCGCCGGCUGGGCAACAUUCUGAGGGGACCAUCCCCUCGGUAAUGGCGAAUGGGACCCA [C49U G59A] | 0.935
8 | GGCCGGCAUGGUCCCAGCCUCCUCGCUGGCGCCGGCUGGGCAACAUUCCGAGGGGACCGUCCCCCGGGUAAUGGCGAAUGGGACCCA [U65C C66G] | 1.11
9 | GGCCGGCAUGGUCCCAGCCUCCUCGCUGGCGCCGGCUGGGCAACAUUCCGAGCUGACCGUCCCCUCGGUAAUGGCGAAUGGGACCCA [G53C G54U] | 1.08
10 | GGCCGGCAUGGUCACAGCCUCCUCGCUGGCGCCGGCUGGGCAACAUUCCGAGGGGACUGUCCCCUCGGUAAUGGCGAAUGGGACCCA [C14A C58U] | 0.705
11 | GGCCGGCAUGGUCCCAGCCUCCUCGCCGGCGCCGGCUGGGCAACAUUCCGAGGGGACCGUCCCCUCGGUAAUGGCUAAUGGGACCCA [U27C G76U] | 0.883
12 | GGCCGGCAUCGUCCCAGCCUCCUCGCUGGCGCCGGCUGGGCCACAUUCCGAGGGGACCGUCCCCUCGGUAAUGGCGAAUGGGACCCA [G10C A42C] | 0.142
13 | GGCCGGCAUGGUCCCAGCCUCCUCGCUCGCGCCGGCUGGGCAAGAUUCCGAGGGGACCGUCCCCUCGGUAAUGGCGAAUGGGACCCA [G28C C44G] | 0
14 | GGCCGGCAUGGUCCCAGCCUCCUCGCUGGCGCCGGCCGGGCAACAUUCCGAGGGGACCGUCCCGUCGGUAAUGGCGAAUGGGACCCA [U37C C64G] | 0.604
15 | GGCCGGCAUGGUCCCAGCCUCCUCGCUGGCGCCGGCCGGGCAACAUUCCGAGGGGACCGUCCCCUCGGUACUGGCGAAUGGGACCCA [U37C A71C] | 0.917
16 | GGCCGGCAUGGUCCCAGCCUCCUCGCUGGCGCCGGCUGGGCAACAUUCCGAGGGGACCGCCCCCCCGGUAAUGGCGAAUGGGACCCA [U60C U65C] | 1.01
17 | GGCCGGCAUGGUCCCAGCCUCCUCGCUGGCGCCGGCUGGGCAACAUUACGAGGGGACCGUCCCCUCGGUAAUUGCGAAUGGGACCCA [C48A G73U] | 0.422
18 | GGCCGGCAUGGUCCCAGCCUCCUCGCUCGCGCCGGCUGGGCAACAUUCCGAGGGGACCGUCUCCUCGGUAAUGGCGAAUGGGACCCA [G28C C62U] | 0.0369
19 | GGCCAGCAUGGUCCCAGCCUCCUCGCUGGCGCCGGCUGGGCAACAUUCCGAUGGGACCGUCCCCUCGGUAAUGGCGAAUGGGACCCA [G5A G52U] | 0.237
20 | GGCCGGCAUGGUCCCAGCCUCCUCGCUGGCGCCGGCUGGGCAACAAUCCGAGGGGACCGUCCCCUCGGUUAUGGCGAAUGGGACCCA [U46A A70U] | 0.587
21 | GGCCAGUAUGGUCCCAGCCUCCUCGCUGGCGCCGGCUGGGCAACAUUCCGAGGGGACCGUCCCCUCGGUAAUGGCGAAUGGGACCCA [G5A C7U] | 0.0978
22 | GGCCGGCAUGGUCCCAGCCUCCUCGCUGGCGCCGGCUGGGCAACAUUCCGAGUGGACCGUCCGCUCGGUAAUGGCGAAUGGGACCCA [G53U C63G] | 1.02

Row | Variant | self-cleavage
23 | GGCCGGCAUGGUCCCAGCCUCCUCGCUGGCGCCGGCUGGGCUACACUCCGAGGGGACCGUCCCCUCGGUAAUGGCGAAUGGGACCCA [A42U U46C] | 0.45
24 | GGCCGGCCUGGUCCCAGCCUCCUCGCUGGCGCCGGCUGGGCGACAUUCCGAGGGGACCGUCCCCUCGGUAAUGGCGAAUGGGACCCA [A8C A42G] | 0.462
25 | GGCCGGCAUGGUCCCAGCCUCCUCGCUGGCGCCGGCUGGGCAACAUUACGAGGGGACCGUCCCCUCGGUAAUGACGAAUGGGACCCA [C48A G74A] | 0.7
26 | CGCCGGCAUGGUCCCAGCCUCCUCGCUGGCGCCGGCUGGGCAUCAUUCCGAGGGGACCGUCCCCUCGGUAAUGGCGAAUGGGACCCA [G1C A43U] | 0.135
27 | GGCCGGCAUGCUCCCAGCCUCCUCGCUGGCGCCGGCUGGGCAACAUUCCGAGGGGACCGUCCCCUCGGUAAUGGCCAAUGGGACCCA [G11C G76C] | 0.628
28 | GGCCGGCAUGAUCCCAGCCUCCUCGCUGGCGCCGGCUGGGCAACAUUCCGAGGGGACCGUCCCCUCGGUAAUGGCGAAUGGGACCCG [G11A A87G] | 0.502
29 | GACCGGCAUGGUCCCAGCCUCCUCGCUGGCGCCGGCUGGGCAACUUUCCGAGGGGACCGUCCCCUCGGUAAUGGCGAAUGGGACCCA [G2A A45U] | 0.111
30 | GGCCGGUAUGGUCCCAGCCUCCUCGCUGGAGCCGGCUGGGCAACAUUCCGAGGGGACCGUCCCCUCGGUAAUGGCGAAUGGGACCCA [C7U C30A] | 0.369
31 | GGCCGGCAUGGUCCCAGCCUCCUCGCUGGCGCCGGCUGGGCAACAUUACGAGGGGACCGUCCCCCCGGUAAUGGCGAAUGGGACCCA [C48A U65C] | 0.98
32 | GGCCGGCACGGUCCCAGCCUCCUCGCUGGCGCCGGCUGGGCAACAUUCCGAGGGGACCGUACCCUCGGUAAUGGCGAAUGGGACCCA [U9C C61A] | 1.03
33 | GGCCGGCAUGGUCCCAGCCUCCUCGCUGGCGCCGGCUGGGCAACAUUCCGAGGGGACCGUCCGCUCGGUAAUGGCGAAUGGGACCCG [C63G A87G] | 0.858
34 | GGCCGGCAUGGUCCCAGCCUCCUCGCUGGCGCCGGCUGGGCAACAUUCCGAGGGGACCGUCCCCUCUGUAAUGGCGUAUGGGACCCA [G67U A77U] | 0.681
35 | GGCCGGCAUGGUCCCAGCCUCCUCGCUGGCGCCGGCAGGGCAACAUUCCGAAGGGACCGUCCCCUCGGUAAUGGCGAAUGGGACCCA [U37A G52A] | 0.145
36 | GUCCGGCAUGGUCCCAGCCUCCUCGCUGGCGCCGGCUGGGCAAGAUUCCGAGGGGACCGUCCCCUCGGUAAUGGCGAAUGGGACCCA [G2U C44G] | 0
37 | GGCCGGCAUGGUCCCAGCCUCCUCGCUGGCGCCGGCUGGGCAACAUUCCGAGCGGACCGUCCCCUCGGUAAUGGCGAAGGGGACCCA [G53C U79G] | 0.443
38 | GGCCGGCAUGGUCCCAGCCUCCUCGCUGGCGCCGGCUGGGCAACAUUCCAAGGGGACCGUCCCCUCGGUAAUGGCGAAGGGGACCCA [G50A U79G] | 0.629
39 | GGCCGGCAUGGUUCCAGCCUCCUCGCUGGCGCCGGCUGGGCAACAUUCCGAGGGGACCGUCCCCUCGGUAAUGGCUAAUGGGACCCA [C13U G76U] | 0.813
40 | GGCCGGCAUGGACCCAGCCUCCUCGCUGGCGCCGGCUGGGCAGCAUUCCGAGGGGACCGUCCCCUCGGUAAUGGCGAAUGGGACCCA [U12A A43G] | 0.0831
41 | GGCCUGCAUGCUCCCAGCCUCCUCGCUGGCGCCGGCUGGGCAACAUUCCGAGGGGACCGUCCCCUCGGUAAUGGCGAAUGGGACCCA [G5U G11C] | 0
42 | GGCCGGCAUGGUCCCAGCCUCCUUGCUGGCGCCGGCUGGGCAACAUUCCGAGGGGGCCGUCCCCUCGGUAAUGGCGAAUGGGACCCA [C24U A56G] | 0.77
43 | GGCCGGCAUGGUCCCAGCCUCCUCGCUGGCGCCGGCUGGGUAACAUUCCGAGGGGACCGUCCCCUCGGUAAUGGCGAAUGAGACCCA [C41U G81A] | 0.237
44 | GGCCGGCAUGGUCCCAGCCUCCCCGCUGGCGCCGGCUGGGCAACAUUCCGAGGGGCCCGUCCCCUCGGUAAUGGCGAAUGGGACCCA [U23C A56C] | 0.942

Row | Variant | self-cleavage
45 | GGCCGGCAAGGUCCCAGCCUCCUCGCUGGCGCCGGCUGGGCAACUUUCCGAGGGGACCGUCCCCUCGGUAAUGGCGAAUGGGACCCA [U9A A45U] | 0.719
46 | GGCCGGCAUGGUCCCAGCCUCCUCGCUGGCGCCGGCUGGGCAACAUUCCGAGGGGACCGUACCCUCGGUACUGGCGAAUGGGACCCA [C61A A71C] | 1.12
47 | GGCCGGCAUGGUCCCAGCCUCCUCGCUGGGGCCGGCUGGGCAACAUUCUGAGGGGACCGUCCCCUCGGUAAUGGCGAAUGGGACCCA [C30G C49U] | 0.0511
48 | GGCCGGCAUGGUCCCAGCCUCCUCGCUGGCGCCGGCUGGGCAACAUUCCGAGAGGACCGACCCCUCGGUAAUGGCGAAUGGGACCCA [G53A U60A] | 0.938
49 | GGCCGGCAUGGUCCCAGCCUCCUCGCUGGCGCCGGCUGGGCAACAUUCCGAGGGGAGCGUCCCCUCGGUAAUGGCGAAUGAGACCCA [C57G G81A] | 0.509
50 | GGCCGGCAUGGUCCCAGCCUCCUCGCUGGCGCCGGCUGGACAACAUUCCGAGGGGACCGUCCCCUCGCUAAUGGCGAAUGGGACCCA [G40A G68C] | 0.794
51 | GGCCGGCAUGGUCCCAGCUUCCUCGCUGGCGCCGGCUGGGCAAGAUUCCGAGGGGACCGUCCCCUCGGUAAUGGCGAAUGGGACCCA [C19U C44G] | 0.0519
52 | GGCCGGCAUGGUCUCAGCCUCCUCGCUGGCGCCGGCUGGGCAACAUUCCGAGGGGACCGUCCCCUCGGUAAUGGCGAAUGGGACCAA [C14U C86A] | 1.1
53 | GGCCGGCAUGGUCCCAGCCUCCUCGCUGGCGCCGGCUGGGCAACAUUCCGAGGGGAGCUUCCCCUCGGUAAUGGCGAAUGGGACCCA [C57G G59U] | 0.978
54 | GGCCGGCAUGGUCCCAGCCUCCUCGCUGGCGCCGGCUGGGCAACAUUCCGCGGGGACCGUCCUCUCGGUAAUGGCGAAUGGGACCCA [A51C C63U] | 1.05
55 | GGCCGGCAUGGUUCCAGCCUCCUCGCUAGCGCCGGCUGGGCAACAUUCCGAGGGGACCGUCCCCUCGGUAAUGGCGAAUGGGACCCA [C13U G28A] | 0.128
56 | GGCCGGCAUGGUCCCAGCCUCCUCGCUGGCGCCGGCUGGGCGACAUUCCGAGGGGACCGUCCCCUCGGUAAUGGCGAAUGGGACUCA [A42G C85U] | 0.767
57 | GGCCGGCAUGGUCCCAGCCUCCUCGCUGGCGCCGGCUGGGCAACAUUCCGAGGGGACCGUCCCCUCGGUAAUGGCGAAUGGGAACAA [C84A C86A] | 0.712
58 | GGCCGGCAUGCUCCCAGCCUCCUCGCUGGCGCCGGCUGGGCAACAUUCCGAGGGGCCCGUCCCCUCGGUAAUGGCGAAUGGGACCCA [G11C A56C] | 0.598
59 | GGCCGGCAUGGUCCCAGCCUCCUCGCUGGCGCCGGCUGGGCAACAUUCCGAAGGGACCGUCCCCUCGGUAAUGGCGAAUGGGACCCA [G52A] | 1.02
60 | AGCCGGCAUGGUCCCAGCCUCCUCGCUGGCGCCGGCUGGGCAACAUUCCGAGGGGACCGUCCCCUCGGUAAUGGCGAGUGGGACCCA [G1A A78G] | 0
61 | GACCGGCAUGGUCCCAGCCUCCUUGCUGGCGCCGGCUGGGCAACAUUCCGAGGGGACCGUCCCCUCGGUAAUGGCGAAUGGGACCCA [G2A C24U] | 0.101
62 | GGCCGGCAUGGUCCCAGCCGCCUCGCUGGGGCCGGCUGGGCAACAUUCCGAGGGGACCGUCCCCUCGGUAAUGGCGAAUGGGACCCA [U20G C30G] | 0.0554
63 | CGCCGGCAUGGUCCCAGCCUCCUCGCUGGCGCCGGCUGGGCAACAUUCCGAGGGGACCGUCCCCUCGAUAAUGGCGAAUGGGACCCA [G1C G68A] | 0.158
64 | GGUCGGCAUGGUCCCAGCCUCCUCGCUGGCGCCGGCUGGGCAACAUUCCGAGGGGACCAUCCCCUCGGUAAUGGCGAAUGGGACCCA [C3U G59A] | 0.925
